Assay [1] concerns the target HLA-A*01:01. Put plainly: IEDB peptide-MHC binding, purified MHC/competitive/fluorescence; ≥ and ≤ were set here for values at or beyond the usual limits of such assays.
Assay [2] deals with HLA-A*24:02. The description is as above. To be noted: source organism: Zaire ebolavirus.
Assay [3] addresses HLA-C*03:03. The experiment in a line: IEDB peptide-MHC binding, purified MHC/direct/fluorescence; filed as Kd, often an IC50 or EC50 that approximates it; ≥ and ≤ were set here for values at or beyond the usual limits of such assays.
For assay [4], the target named is HLA-C*07:02. The description is as above. To be noted: source organism: Mycobacterium tuberculosis variant bovis BCG str. Pasteur 1173P2.
Assay [5] concerns the target HLA-B*46:01. The experiment in a line: IEDB peptide-MHC binding, purified MHC/competitive/fluorescence; filed as Kd, often an IC50 or EC50 that approximates it; ≥ and ≤ were set here for values at or beyond the usual limits of such assays. The settings on record: source organism: Mycobacterium tuberculosis variant bovis BCG str. Pasteur 1173P2.
The target of assay [6] is HLA-A*02:01. Put plainly: IEDB peptide-MHC binding, purified MHC/direct/fluorescence; filed as Kd, often an IC50 or EC50 that approximates it; ≥ and ≤ were set here for values at or beyond the usual limits of such assays.
Assay [7] has as its target HLA-A*69:01. The assay is described as above.
The target of assay [8] is HLA-B*51:01. The description is as above. The settings on record: source organism: Giardia lamblia ATCC 50803.
For assay [9], the target named is HLA-C*05:01. The description is as above.
Assay [10] deals with HLA-B*15:42. The experiment in a line: IEDB peptide-MHC binding, purified MHC/competitive/fluorescence; filed as Kd, often an IC50 or EC50 that approximates it; ≥ and ≤ were set here for values at or beyond the usual limits of such assays. The settings on record: source organism: Giardia lamblia ATCC 50803.
In assay [11] the target is HLA-B*45:06. The description is as above. To be noted: source organism: Giardia lamblia ATCC 50803.
The target of assay [12] is HLA-B*83:01. The description is as above. To be noted: source organism: Giardia lamblia ATCC 50803.
Assay [13] concerns the target HLA-A*02:12. The experiment in a line: IEDB peptide-MHC binding, purified MHC/direct/fluorescence; filed as Kd, often an IC50 or EC50 that approximates it; ≥ and ≤ were set here for values at or beyond the usual limits of such assays.
For assay [14], the target named is HLA-A*02:50. The experiment in a line: IEDB peptide-MHC binding, purified MHC/competitive/fluorescence; filed as Kd, often an IC50 or EC50 that approximates it; ≥ and ≤ were set here for values at or beyond the usual limits of such assays.
In assay [15] the target is HLA-B*15:17. Put plainly: IEDB peptide-MHC binding, purified MHC/direct/fluorescence; filed as Kd, often an IC50 or EC50 that approximates it; ≥ and ≤ were set here for values at or beyond the usual limits of such assays. To be noted: source organism: West Nile virus.
Assay [16] concerns the target HLA-B*57:01. Described as above. The settings on record: source organism: West Nile virus.
Assay [17] has as its target HLA-B*35:01. The experiment in a line: IEDB peptide-MHC binding, purified MHC/competitive/fluorescence; filed as Kd, often an IC50 or EC50 that approximates it; ≥ and ≤ were set here for values at or beyond the usual limits of such assays. To be noted: source organism: West Nile virus.
The target of assay [18] is HLA-B*51:01. Described as above.
Assay [19] addresses HLA-A*02:01. Put plainly: IEDB peptide-MHC binding, purified MHC/competitive/fluorescence; ≥ and ≤ were set here for values at or beyond the usual limits of such assays. To be noted: source organism: Zaire ebolavirus.
Assay [20] addresses HLA-A*01:01. Put plainly: IEDB peptide-MHC binding, purified MHC/direct/fluorescence; filed as Kd, often an IC50 or EC50 that approximates it; ≥ and ≤ were set here for values at or beyond the usual limits of such assays. To be noted: source organism: Salmonella enterica.
The target of assay [21] is HLA-A*03:01. The description is as above. The settings on record: source organism: Salmonella enterica.
Assay [22] concerns the target HLA-A*11:01. The assay is described as above. The settings on record: source organism: Salmonella enterica.
Assay [23] deals with HLA-A*24:03. Described as above. To be noted: source organism: Salmonella enterica.
The target of assay [24] is HLA-A*26:01. Described as above. The settings on record: source organism: Salmonella enterica.
Assay [25] addresses HLA-A*31:01. Described as above. To be noted: source organism: Salmonella enterica subsp. enterica serovar Typhimurium.
Assay [26] deals with HLA-B*07:02. Described as above. To be noted: source organism: Salmonella enterica.
Assay [27] deals with HLA-B*08:01. The assay is described as above. To be noted: source organism: Salmonella enterica.
Assay [28] addresses HLA-B*15:01. The description is as above. To be noted: source organism: Salmonella enterica.
Assay [29] has as its target HLA-B*27:05. Described as above. To be noted: source organism: Salmonella enterica.
Assay [30] addresses HLA-B*40:01. The description is as above. The settings on record: source organism: Salmonella enterica.
Assay [31] concerns the target HLA-B*44:02. Described as above. To be noted: source organism: Salmonella enterica.
Assay [32] addresses HLA-B*58:01. The assay is described as above.
The target of assay [33] is HLA-A*68:02. Put plainly: IEDB peptide-MHC binding, purified MHC/competitive/fluorescence; filed as Kd, often an IC50 or EC50 that approximates it; ≥ and ≤ were set here for values at or beyond the usual limits of such assays. The settings on record: source organism: Entamoeba histolytica HM-1:IMSS.
Assay [34] has as its target HLA-A*03:01. The experiment in a line: IEDB peptide-MHC binding, purified MHC/competitive/fluorescence; ≥ and ≤ were set here for values at or beyond the usual limits of such assays. To be noted: source organism: Vaccinia virus Copenhagen.
For assay [35], the target named is HLA-A*11:01. The assay is described as above. The settings on record: source organism: Vaccinia virus Copenhagen.
In assay [36] the target is HLA-B*15:01. Described as above. The settings on record: source organism: Vaccinia virus Copenhagen.
For assay [37], the target named is HLA-A*31:01. Put plainly: IEDB peptide-MHC binding, purified MHC/competitive/radioactivity; filed as Kd, often an IC50 or EC50 that approximates it; ≥ and ≤ were set here for values at or beyond the usual limits of such assays. To be noted: source organism: Vaccinia virus WR.
The target in assay [38] is HLA-A*33:01. Described as above. The settings on record: source organism: Vaccinia virus WR.
Assay [39] deals with HLA-A*68:01. The description is as above. The settings on record: source organism: Vaccinia virus WR.
Setting [40] is: source organism: Zaire ebolavirus.
The mark [41] stands for this setting: source organism: Marburg virus - Musoke, Kenya, 1980.
Where [42] appears, read: source organism: Giardia lamblia ATCC 50803.
The mark [43] stands for this setting: source organism: Vibrio vulnificus.
Where [44] appears, read: source organism: Vibrio vulnificus CMCP6.
Where [45] appears, read: source organism: West Nile virus.
Where [46] appears, read: source organism: Salmonella enterica subsp. enterica serovar Typhimurium.
[47] abbreviates: source organism: Mammarenavirus juninense.
The mark [48] stands for this setting: source organism: Vaccinia virus.
The mark [49] stands for this setting: source organism: Burkholderia mallei.
The mark [50] stands for this setting: source organism: Burkholderia mallei ATCC 23344.

As usually defined, the IC50 is the point on the concentration scale where inhibition reaches its midpoint. With EIDTTIGEW, the IC50 is at least 494 µM in [1] (setting [40]) and at least 81.7 µM in assay [2].
A word on the Kd: it is a measure of binding affinity in units of concentration. Regarding FLLDGGAPF, the Kd in assay [3] (source organism: Mycobacterium tuberculosis variant bovis BCG str. Pasteur 1173P2) is at most 0.001 µM; in assay [4], 0.527 µM; in assay [5] it was 0.0212 µM.
On to FLLDYEGTL, for which the Kd in assay [6] (setting [41]) was 0.006 µM; in [7] (setting [41]) it was 0.437 µM; in assay [3] (source organism: Orthomarburgvirus marburgense) it was at most 0.001 µM.
Turning to FPMIIGSEL, the Kd was 2.13 µM in assay [8]; at least 20 µM in [9] (setting [42]); at least 5 µM in [10]; at least 5 µM in assay [11]; 0.156 µM in assay [12].
For the sequence KIDDMIEEV, in [9] (source organism: Vaccinia virus WR), the Kd was found to be 0.124 µM.
Turning to KLTSYSAGL, the Kd in assay [6] (setting [43]) is 0.021 µM; in assay [13] (setting [44]), 0.007 µM; in assay [7] (setting [43]) it was 15.1 µM; in assay [14] (setting [44]), at most 0.0001 µM.
Take LAVSAYTPW: the dissociation constant Kd in assay [15] is 0.005 µM; in assay [16], 0.086 µM; in assay [3] (setting [45]), at most 0.001 µM; in assay [17], 0.0057 µM; in assay [18] (setting [45]), at least 20 µM.
For LFEVDNLTY, the IC50 in assay [1] (setting [40]) is 69.1 µM; in [19], at least 210 µM; in assay [2] it was 66.5 µM.
LLQGVPFHV: the Kd was at least 20 µM in assay [20]; 0.109 µM in assay [6] (setting [46]); at least 20 µM in [21]; at least 20 µM in [22]; at least 20 µM in assay [23]; at least 20 µM in assay [24]. The Kd in assay [25] was 1.81 µM; in assay [7] (setting [46]), 0.289 µM; in [26], at least 20 µM; in [27] it was at least 20 µM; in assay [28], at least 20 µM; in assay [29], at least 20 µM. For the same sequence, the Kd was at least 20 µM in assay [30], at least 20 µM in assay [31], at least 20 µM in assay [32] (source organism: Salmonella enterica) and at most 0.0001 µM in [14] (source organism: Salmonella enterica subsp. enterica serovar Paratyphi B str. SPB7).
On to MPVSIPTPI, for which the Kd in [9] (setting [42]) was at least 20 µM; in assay [18] (setting [42]), 0.34 µM.
In assay [33], MVPKSFTYS yielded a Kd of 0.0762 µM.
As for RATQPAAEF, the Kd in assay [32] (setting [47]) came out at 0.0129 µM; in assay [9] (setting [47]) it was 1.74 µM.
Turning to TLNHNCINV, the dissociation constant (Kd) in assay [6] (source organism: Cowpox virus) was 0.404 µM; in assay [13] (setting [48]), 0.019 µM; in assay [7] (source organism: Cowpox virus), 0.136 µM; in assay [14] (setting [48]), 0.0002 µM.
As for VTAASPMLY, the IC50 was 1.29 µM in assay [1] (source organism: Vaccinia virus Copenhagen), 10.5 µM in assay [34], 1.17 µM in assay [35] and 4.45 µM in assay [36]. The values for the Kd in [37], in [38] and in assay [39] were at least 77.9 µM, 14.5 µM and 0.861 µM, respectively.
As for YLACKQHAL, the Kd is 0.0625 µM in [6] (setting [49]), 0.291 µM in [7] (setting [49]), 0.024 µM in assay [3] (setting [50]) and at most 0.0001 µM in assay [14] (setting [50]).

The values are drawn from the Immune Epitope Database (IEDB).
